Measurements from publication PMC9482650, “Quantitative fragmentomics allow affinity mapping of interactomes” (Nature Communications, 2022).

T1: RHPN1, Q8TCX5
T1 sequence (Q8TCX5 508-602, limits assumed, looked up): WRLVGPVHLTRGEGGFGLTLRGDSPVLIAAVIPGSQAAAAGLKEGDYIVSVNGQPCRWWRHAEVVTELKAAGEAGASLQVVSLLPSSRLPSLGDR

T2: LNX2_3, Q8N448
T2 sequence (Q8N448 463-564, limits assumed, looked up): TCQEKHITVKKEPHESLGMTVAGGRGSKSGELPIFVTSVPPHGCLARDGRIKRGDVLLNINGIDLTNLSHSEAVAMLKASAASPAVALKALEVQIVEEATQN

T3: HTRA3, P83110
T3 sequence (P83110 354-453, limits assumed, looked up): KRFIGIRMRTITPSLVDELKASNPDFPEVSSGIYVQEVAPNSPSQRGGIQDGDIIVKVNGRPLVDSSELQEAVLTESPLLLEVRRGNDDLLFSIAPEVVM

T4: LRRC7, Q96NW7
T4 sequence (Q96NW7 1440-1537, limits assumed, looked up): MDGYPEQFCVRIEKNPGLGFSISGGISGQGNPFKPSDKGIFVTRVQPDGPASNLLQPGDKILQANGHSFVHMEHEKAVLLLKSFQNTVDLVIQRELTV

T5: MPDZ_12, O75970
T5 sequence (O75970 1857-1958, limits assumed, looked up): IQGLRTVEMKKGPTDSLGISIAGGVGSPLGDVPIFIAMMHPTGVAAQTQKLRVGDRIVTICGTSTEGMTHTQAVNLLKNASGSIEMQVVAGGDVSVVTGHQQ

T6: DVL3, Q92997
T6 sequence (Q92997 244-331, limits assumed, looked up): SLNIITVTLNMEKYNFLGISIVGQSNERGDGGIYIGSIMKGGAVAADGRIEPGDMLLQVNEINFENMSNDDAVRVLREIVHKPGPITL

T7: GRIP1_3, Q9Y3R0
T7 sequence (Q9Y3R0 247-346, limits assumed, looked up): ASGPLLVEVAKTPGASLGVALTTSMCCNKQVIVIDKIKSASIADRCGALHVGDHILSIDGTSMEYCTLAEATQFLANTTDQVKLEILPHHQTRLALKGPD

T8: ARHGEF11, O15085
T8 sequence (O15085 42-136, limits assumed, looked up): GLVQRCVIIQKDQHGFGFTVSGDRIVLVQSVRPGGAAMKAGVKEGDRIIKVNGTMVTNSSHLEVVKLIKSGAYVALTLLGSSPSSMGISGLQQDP

T9: CARD11, Q9BXL7
T9 sequence (Q9BXL7 662-765, limits assumed, looked up): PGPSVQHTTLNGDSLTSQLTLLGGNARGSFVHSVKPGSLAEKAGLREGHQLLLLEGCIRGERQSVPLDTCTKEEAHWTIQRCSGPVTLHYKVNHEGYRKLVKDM

T10: GRIP1_7, Q9Y3R0
T10 sequence (Q9Y3R0 999-1096, limits assumed, looked up): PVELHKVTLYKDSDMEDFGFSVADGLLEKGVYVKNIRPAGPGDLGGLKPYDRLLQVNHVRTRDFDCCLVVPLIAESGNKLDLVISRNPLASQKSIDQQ


Target: GRIP2_5, Q9C0E4
Test: holdup assay
Design: key: below the threshold = too weak to quantify, mostly under pKd 3.1 to 4
Settings: plain residues with an end cap or a label only (N-terminal biotin on a linker: ado-ado)

Sequence of GRIP2_5, Q9C0E4 (Q9C0E4 544-642): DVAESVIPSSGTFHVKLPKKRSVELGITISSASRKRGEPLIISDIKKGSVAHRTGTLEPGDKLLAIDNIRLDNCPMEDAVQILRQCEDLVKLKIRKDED

pKd	Binder
3.58	QYPGSPDSWV [PKP4, Q99569]
below the threshold	DFRHKSSFVI [JAM3, Q9BX67]

Target: T1, RHPN1, Q8TCX5
Test: holdup assay
Design: key: below the threshold = too weak to quantify, mostly under pKd 3.1 to 4
Settings: plain residues with an end cap or a label only (N-terminal biotin on a linker: ado-ado)

pKd	Binder
4.26	QYPGSPDSWV [PKP4, Q99569]
below the threshold	DFRHKSSFVI [JAM3, Q9BX67]

Target: T2, LNX2_3, Q8N448
Test: holdup assay
Design: key: below the threshold = too weak to quantify, mostly under pKd 3.1 to 4
Settings: plain residues with an end cap or a label only (N-terminal biotin on a linker: ado-ado)

pKd	Binder
below the threshold	QYPGSPDSWV [PKP4, Q99569]
below the threshold	DFRHKSSFVI [JAM3, Q9BX67]

Target: IL16_1, Q14005
Test: holdup assay
Design: key: below the threshold = too weak to quantify, mostly under pKd 3.1 to 4
Settings: plain residues with an end cap or a label only (N-terminal biotin on a linker: ado-ado)

Sequence of IL16_1, Q14005 (Q14005 210-306): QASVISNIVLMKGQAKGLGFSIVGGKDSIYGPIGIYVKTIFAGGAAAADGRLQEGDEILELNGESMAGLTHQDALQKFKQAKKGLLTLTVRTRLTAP

pKd	Binder
4.13	QYPGSPDSWV [PKP4, Q99569]
below the threshold	DFRHKSSFVI [JAM3, Q9BX67]

Target: T3, HTRA3, P83110
Test: holdup assay
Design: key: below the threshold = too weak to quantify, mostly under pKd 3.1 to 4
Settings: plain residues with an end cap or a label only (N-terminal biotin on a linker: ado-ado)

pKd	Binder
5.54	QYPGSPDSWV [PKP4, Q99569]
3.89	DFRHKSSFVI [JAM3, Q9BX67]

Target: TJP1_2, Q07157
Test: holdup assay
Design: key: below the threshold = too weak to quantify, mostly under pKd 3.1 to 4
Settings: plain residues with an end cap or a label only (N-terminal biotin on a linker: ado-ado)

Sequence of TJP1_2, Q07157 (Q07157 181-274): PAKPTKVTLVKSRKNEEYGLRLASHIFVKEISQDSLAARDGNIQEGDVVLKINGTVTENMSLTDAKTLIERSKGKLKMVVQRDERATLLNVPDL

pKd	Binder
3.76	QYPGSPDSWV [PKP4, Q99569]
below the threshold	DFRHKSSFVI [JAM3, Q9BX67]

Target: LDB3, O75112
Test: holdup assay
Design: key: below the threshold = too weak to quantify, mostly under pKd 3.1 to 4
Settings: plain residues with an end cap or a label only (N-terminal biotin on a linker: ado-ado)

Sequence of LDB3, O75112 (O75112 1-94): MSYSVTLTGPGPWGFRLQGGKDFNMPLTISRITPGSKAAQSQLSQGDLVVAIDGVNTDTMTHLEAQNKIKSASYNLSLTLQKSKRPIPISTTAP

pKd	Binder
3.82	QYPGSPDSWV [PKP4, Q99569]
3.76	DFRHKSSFVI [JAM3, Q9BX67]

Target: TJP1_3, Q07157
Test: holdup assay
Design: key: below the threshold = too weak to quantify, mostly under pKd 3.1 to 4
Settings: plain residues with an end cap or a label only (N-terminal biotin on a linker: ado-ado)

Sequence of TJP1_3, Q07157 (Q07157 416-512): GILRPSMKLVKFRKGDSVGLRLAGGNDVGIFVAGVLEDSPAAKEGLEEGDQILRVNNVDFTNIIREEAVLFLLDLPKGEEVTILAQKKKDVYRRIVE

pKd	Binder
3.68	QYPGSPDSWV [PKP4, Q99569]
below the threshold	DFRHKSSFVI [JAM3, Q9BX67]

Target: T4, LRRC7, Q96NW7
Test: holdup assay
Design: key: below the threshold = too weak to quantify, mostly under pKd 3.1 to 4
Settings: plain residues with an end cap or a label only (N-terminal biotin on a linker: ado-ado)

pKd	Binder
4.97	QYPGSPDSWV [PKP4, Q99569]
below the threshold	DFRHKSSFVI [JAM3, Q9BX67]

Target: MAGI2_3, Q86UL8
Test: holdup assay
Design: key: below the threshold = too weak to quantify, mostly under pKd 3.1 to 4
Settings: plain residues with an end cap or a label only (N-terminal biotin on a linker: ado-ado)

Sequence of MAGI2_3, Q86UL8 (Q86UL8 600-682): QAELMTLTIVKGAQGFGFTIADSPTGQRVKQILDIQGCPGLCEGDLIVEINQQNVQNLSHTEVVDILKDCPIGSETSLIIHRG

pKd	Binder
below the threshold	QYPGSPDSWV [PKP4, Q99569]
below the threshold	DFRHKSSFVI [JAM3, Q9BX67]

Target: DLG5_1, Q8TDM6
Test: holdup assay
Design: key: below the threshold = too weak to quantify, mostly under pKd 3.1 to 4
Settings: plain residues with an end cap or a label only (N-terminal biotin on a linker: ado-ado)

Sequence of DLG5_1, Q8TDM6 (Q8TDM6 617-713): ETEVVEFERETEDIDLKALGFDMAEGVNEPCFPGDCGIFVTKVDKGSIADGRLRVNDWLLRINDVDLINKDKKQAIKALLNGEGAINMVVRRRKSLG

pKd	Binder
below the threshold	QYPGSPDSWV [PKP4, Q99569]
below the threshold	DFRHKSSFVI [JAM3, Q9BX67]

Target: LNX1_1, Q8TBB1
Test: holdup assay
Design: key: below the threshold = too weak to quantify, mostly under pKd 3.1 to 4
Settings: plain residues with an end cap or a label only (N-terminal biotin on a linker: ado-ado)

Sequence of LNX1_1, Q8TBB1 (Q8TBB1 261-371): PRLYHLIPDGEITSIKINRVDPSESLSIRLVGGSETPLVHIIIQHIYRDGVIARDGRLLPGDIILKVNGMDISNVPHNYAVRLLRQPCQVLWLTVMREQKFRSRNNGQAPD

pKd	Binder
3.98	QYPGSPDSWV [PKP4, Q99569]
below the threshold	DFRHKSSFVI [JAM3, Q9BX67]

Target: T5, MPDZ_12, O75970
Test: holdup assay
Design: key: below the threshold = too weak to quantify, mostly under pKd 3.1 to 4
Settings: plain residues with an end cap or a label only (N-terminal biotin on a linker: ado-ado)

pKd	Binder
4.69	QYPGSPDSWV [PKP4, Q99569]
3.49	DFRHKSSFVI [JAM3, Q9BX67]

Target: T6, DVL3, Q92997
Test: holdup assay
Design: key: below the threshold = too weak to quantify, mostly under pKd 3.1 to 4
Settings: plain residues with an end cap or a label only (N-terminal biotin on a linker: ado-ado)

pKd	Binder
3.93	QYPGSPDSWV [PKP4, Q99569]
below the threshold	DFRHKSSFVI [JAM3, Q9BX67]

Target: LNX1_3, Q8TBB1
Test: holdup assay
Design: key: below the threshold = too weak to quantify, mostly under pKd 3.1 to 4
Settings: plain residues with an end cap or a label only (N-terminal biotin on a linker: ado-ado)

Sequence of LNX1_3, Q8TBB1 (Q8TBB1 500-596): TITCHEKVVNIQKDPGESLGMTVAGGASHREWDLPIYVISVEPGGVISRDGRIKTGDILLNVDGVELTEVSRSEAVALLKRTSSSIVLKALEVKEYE

pKd	Binder
below the threshold	QYPGSPDSWV [PKP4, Q99569]
below the threshold	DFRHKSSFVI [JAM3, Q9BX67]

Target: Inadl_10, Q8NI35
Test: holdup assay
Design: key: below the threshold = too weak to quantify, mostly under pKd 3.1 to 4
Settings: plain residues with an end cap or a label only (N-terminal biotin on a linker: ado-ado)

Sequence of Inadl_10, Q8NI35 (Q8NI35 1673-1763): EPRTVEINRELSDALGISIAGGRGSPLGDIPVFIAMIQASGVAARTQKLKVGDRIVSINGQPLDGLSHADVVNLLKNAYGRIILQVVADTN

pKd	Binder
3.75	QYPGSPDSWV [PKP4, Q99569]
below the threshold	DFRHKSSFVI [JAM3, Q9BX67]

Target: T7, GRIP1_3, Q9Y3R0
Test: holdup assay
Design: key: below the threshold = too weak to quantify, mostly under pKd 3.1 to 4
Settings: plain residues with an end cap or a label only (N-terminal biotin on a linker: ado-ado)

pKd	Binder
below the threshold	QYPGSPDSWV [PKP4, Q99569]
below the threshold	DFRHKSSFVI [JAM3, Q9BX67]

Target: NHERF4_4, Q86UT5
Test: holdup assay
Design: key: below the threshold = too weak to quantify, mostly under pKd 3.1 to 4
Settings: plain residues with an end cap or a label only (N-terminal biotin on a linker: ado-ado)

Sequence of NHERF4_4, Q86UT5 (Q86UT5 464-550): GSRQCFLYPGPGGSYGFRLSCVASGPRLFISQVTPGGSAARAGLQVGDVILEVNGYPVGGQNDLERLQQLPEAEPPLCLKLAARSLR

pKd	Binder
below the threshold	QYPGSPDSWV [PKP4, Q99569]
below the threshold	DFRHKSSFVI [JAM3, Q9BX67]

Target: GRASP, Q7Z6J2
Test: holdup assay
Design: key: below the threshold = too weak to quantify, mostly under pKd 3.1 to 4
Settings: plain residues with an end cap or a label only (N-terminal biotin on a linker: ado-ado)

Sequence of GRASP, Q7Z6J2 (Q7Z6J2 96-193): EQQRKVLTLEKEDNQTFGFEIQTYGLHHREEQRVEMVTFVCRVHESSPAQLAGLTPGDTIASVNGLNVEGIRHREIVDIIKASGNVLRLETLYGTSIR

pKd	Binder
3.52	QYPGSPDSWV [PKP4, Q99569]
below the threshold	DFRHKSSFVI [JAM3, Q9BX67]

Target: SCRIB_1, Q14160
Test: holdup assay
Design: key: below the threshold = too weak to quantify, mostly under pKd 3.1 to 4
Settings: plain residues with an end cap or a label only (N-terminal biotin on a linker: ado-ado)

Sequence of SCRIB_1, Q14160 (Q14160 718-814): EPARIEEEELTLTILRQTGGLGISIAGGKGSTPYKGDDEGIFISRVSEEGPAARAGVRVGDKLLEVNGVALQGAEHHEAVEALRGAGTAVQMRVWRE

pKd	Binder
3.91	QYPGSPDSWV [PKP4, Q99569]
below the threshold	DFRHKSSFVI [JAM3, Q9BX67]

Target: NHERF4_1, Q86UT5-2
Test: holdup assay
Design: key: below the threshold = too weak to quantify, mostly under pKd 3.1 to 4
Settings: plain residues with an end cap or a label only (N-terminal biotin on a linker: ado-ado)

Sequence of NHERF4_1, Q86UT5-2 (Q86UT5 other isoform, or with tags, fused parts or gaps): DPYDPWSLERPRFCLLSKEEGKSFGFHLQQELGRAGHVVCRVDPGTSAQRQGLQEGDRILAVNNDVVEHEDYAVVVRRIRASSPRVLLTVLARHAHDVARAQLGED

pKd	Binder
3.57	QYPGSPDSWV [PKP4, Q99569]
below the threshold	DFRHKSSFVI [JAM3, Q9BX67]

Target: T8, ARHGEF11, O15085
Test: holdup assay
Design: key: below the threshold = too weak to quantify, mostly under pKd 3.1 to 4
Settings: plain residues with an end cap or a label only (N-terminal biotin on a linker: ado-ado)

pKd	Binder
below the threshold	QYPGSPDSWV [PKP4, Q99569]
below the threshold	DFRHKSSFVI [JAM3, Q9BX67]

Target: T9, CARD11, Q9BXL7
Test: holdup assay
Design: key: below the threshold = too weak to quantify, mostly under pKd 3.1 to 4
Settings: plain residues with an end cap or a label only (N-terminal biotin on a linker: ado-ado)

pKd	Binder
below the threshold	QYPGSPDSWV [PKP4, Q99569]
below the threshold	DFRHKSSFVI [JAM3, Q9BX67]

Target: MAGI1_2, Q96QZ7
Test: holdup assay
Design: key: below the threshold = too weak to quantify, mostly under pKd 3.1 to 4
Settings: plain residues with an end cap or a label only (N-terminal biotin on a linker: ado-ado)

Sequence of MAGI1_2, Q96QZ7 (Q96QZ7 456-580): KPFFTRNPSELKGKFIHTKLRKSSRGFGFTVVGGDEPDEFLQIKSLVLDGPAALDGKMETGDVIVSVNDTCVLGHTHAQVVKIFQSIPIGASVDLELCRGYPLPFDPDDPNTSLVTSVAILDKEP

pKd	Binder
3.48	QYPGSPDSWV [PKP4, Q99569]
below the threshold	DFRHKSSFVI [JAM3, Q9BX67]

Target: NHERF4_2, Q86UT5
Test: holdup assay
Design: key: below the threshold = too weak to quantify, mostly under pKd 3.1 to 4
Settings: plain residues with an end cap or a label only (N-terminal biotin on a linker: ado-ado)

Sequence of NHERF4_2, Q86UT5 (Q86UT5 220-308): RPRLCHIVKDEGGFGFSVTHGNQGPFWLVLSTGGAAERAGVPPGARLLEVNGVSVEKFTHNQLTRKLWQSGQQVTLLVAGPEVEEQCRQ

pKd	Binder
below the threshold	QYPGSPDSWV [PKP4, Q99569]
below the threshold	DFRHKSSFVI [JAM3, Q9BX67]

Target: PDZRN4_1, Q6ZMN7
Test: holdup assay
Design: key: below the threshold = too weak to quantify, mostly under pKd 3.1 to 4
Settings: plain residues with an end cap or a label only (N-terminal biotin on a linker: ado-ado)

Sequence of PDZRN4_1, Q6ZMN7 (Q6ZMN7 213-318): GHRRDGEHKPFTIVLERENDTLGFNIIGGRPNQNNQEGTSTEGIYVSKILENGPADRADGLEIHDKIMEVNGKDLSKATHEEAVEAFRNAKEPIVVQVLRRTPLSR

pKd	Binder
4.06	QYPGSPDSWV [PKP4, Q99569]
below the threshold	DFRHKSSFVI [JAM3, Q9BX67]

Target: GIPC2, Q8TF65
Test: holdup assay
Design: key: below the threshold = too weak to quantify, mostly under pKd 3.1 to 4
Settings: plain residues with an end cap or a label only (N-terminal biotin on a linker: ado-ado)

Sequence of GIPC2, Q8TF65 (Q8TF65 112-203): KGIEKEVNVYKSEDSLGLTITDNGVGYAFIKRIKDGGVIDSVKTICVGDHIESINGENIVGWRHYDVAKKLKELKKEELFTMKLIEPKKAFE

pKd	Binder
3.5	QYPGSPDSWV [PKP4, Q99569]
below the threshold	DFRHKSSFVI [JAM3, Q9BX67]

Target: T10, GRIP1_7, Q9Y3R0
Test: holdup assay
Design: key: below the threshold = too weak to quantify, mostly under pKd 3.1 to 4
Settings: plain residues with an end cap or a label only (N-terminal biotin on a linker: ado-ado)

pKd	Binder
3.7	QYPGSPDSWV [PKP4, Q99569]
below the threshold	DFRHKSSFVI [JAM3, Q9BX67]
